The source of these data is patent US20100306864A1 (OTSUKA CHEMICAL, published 2010).

The target of one assay is T1, CD20 (on Daudi cells) (human, UniProt P11836 1-297).
T1 construct: whole, on cells; The target is the CD20 naturally present on Daudi cells; also called antigen
T1 sequence (looked up): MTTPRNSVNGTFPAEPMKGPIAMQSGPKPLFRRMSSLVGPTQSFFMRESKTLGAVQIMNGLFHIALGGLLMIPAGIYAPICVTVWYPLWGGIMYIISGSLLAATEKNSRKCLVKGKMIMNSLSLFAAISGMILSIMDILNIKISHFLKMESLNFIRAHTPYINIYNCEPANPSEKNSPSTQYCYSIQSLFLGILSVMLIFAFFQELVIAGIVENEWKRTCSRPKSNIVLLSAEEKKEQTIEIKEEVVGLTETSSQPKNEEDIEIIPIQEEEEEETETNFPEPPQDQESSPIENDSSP
Description: cell ELISA on Daudi cells, HRP anti-human IgG, OD450. The method, then: Daudi cells (ATCC catalog No. CCL-213) were dispensed into a 96 well plate at a density of 6×10⁴ cells/well, each of the antibody mutants (Glu293Cys, Glu294Cys, Tyr296Cys, Ser298Cys, or Tyr300Cys) obtained in Example 1 or wild type antibody was added thereto, and a reaction was carried out at 4° C. for 1 hour. Following this, washing was carried out with 3 mM EDTA-0.5% BSA-PBS(−) (washing buffer). Subsequently, 50 μL/well of an HRP-labeled anti-human IgG antibody (Zymed) diluted 500 times with the washing buffer was added, and a reaction was carried out at 4° C. for 1 hour. Cells after the reaction were washed with the washing buffer, 100 μL/well of TMB substrate (KPL) was added thereto so as to cause coloration, the reaction was stopped by adding 100 μL/well of 1 M HCl (Wako), and the OD value at 450 nm was measured using a plate reader (VersaMax, Molecular Devices).

Assay [1] addresses T2, CD16 (NK cell Fcy receptor III), expressed on CHO-K1 cells (human, UniProt P08637 17-254).
T2 construct: whole, on cells; also called CD16-expressing CHO-K1 cells
Kind of assay: flow cytometry on CD16-expressing CHO-K1 cells; biotin anti-human IgG kappa L chain antibody and PE-streptavidin. The method, then: CD16-expressing CHO-K1 cells were taken at 6×10⁴ cells/tube, each of the antibody mutants obtained in Example (Tyr296Cys or Ser298Cys) or wild type antibody was added thereto to give a total amount of 50 μL/tube, and a reaction was carried out at 4° C. for 1 hour. Following this, washing was carried out with 3 mM EDTA-0.5% BSA-PBS(−) (washing buffer). Subsequently, a biotin-labeled mouse anti-human IgGκ L chain antibody (Vector Lab) diluted 200 times with the washing buffer was added at 100 μL/tube. After a reaction was carried out at 4° C. for 30 min, washing was carried out with 3 mM EDTA-0.5% BSA-PBS(−), PE-labeled streptavidin (BD-Pharmingen) diluted 400 times with the washing buffer was added at 100 μL/tube, and a reaction was carried out at 4° C. for 30 min. After the reaction was completed, washing was carried out twice with 3 mM EDTA-0.5% BSA-PBS(−), and a CD16-binding anti-CD20 antibody was analyzed using a flow cytometer (FACS Caliber, BecktonDickinson).

T2 sequence (P08637 17-254): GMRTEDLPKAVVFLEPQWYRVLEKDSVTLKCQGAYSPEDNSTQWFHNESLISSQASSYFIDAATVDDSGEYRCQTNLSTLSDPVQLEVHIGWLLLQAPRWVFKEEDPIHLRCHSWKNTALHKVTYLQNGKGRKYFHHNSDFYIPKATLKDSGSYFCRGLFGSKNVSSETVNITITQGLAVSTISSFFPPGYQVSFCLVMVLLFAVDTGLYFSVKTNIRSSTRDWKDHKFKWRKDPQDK

B1: anti-CD20 chimera antibody (wild type) (antibody, human IgG1, kappa)
heavy: not shown
light: QIVLSQSPAILSASPGEKVTMTCRASSSVSYMHWYQQKPGSSPKPWIYAPSNLASGVPARFSGSGSGTSYSLTISRVEAEDAANYYCQQWSFNPPTFGAGTKLELKTVAAPSVFIFPPSDEQLKSGTASVVCLLNNFYPREAKVQWKVDNALQSGNSQESVTEQDSKDSTYSLSSTLTLSKADYEKHKVYACEVTHQGLSSPVTKSFNRGEC
notes: Mouse anti-CD20 variable regions joined to human IgG1 H chain and human L chain constant regions; also called wild type antibody; wild type anti-CD20 chimera antibody; copies: 2 + 2
Take B1: in the assay with CD20 (on Daudi cells), the binding result is “binds”.

B2: anti-CD20 chimera antibody H chain constant region amino acid mutant Tyr300Cys (antibody, human IgG1, kappa)
heavy: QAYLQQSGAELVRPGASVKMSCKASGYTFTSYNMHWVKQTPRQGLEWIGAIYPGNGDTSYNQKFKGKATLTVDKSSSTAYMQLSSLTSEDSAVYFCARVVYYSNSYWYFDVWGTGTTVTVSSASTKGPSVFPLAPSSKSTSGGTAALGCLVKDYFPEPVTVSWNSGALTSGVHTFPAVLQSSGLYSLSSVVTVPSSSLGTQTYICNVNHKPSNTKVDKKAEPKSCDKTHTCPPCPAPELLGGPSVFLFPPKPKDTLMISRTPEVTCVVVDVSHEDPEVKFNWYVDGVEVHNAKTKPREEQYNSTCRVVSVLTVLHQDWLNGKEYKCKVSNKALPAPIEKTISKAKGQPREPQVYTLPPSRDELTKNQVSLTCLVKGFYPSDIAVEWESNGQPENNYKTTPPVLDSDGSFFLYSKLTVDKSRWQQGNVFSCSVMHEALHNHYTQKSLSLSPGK
light: QIVLSQSPAILSASPGEKVTMTCRASSSVSYMHWYQQKPGSSPKPWIYAPSNLASGVPARFSGSGSGTSYSLTISRVEAEDAANYYCQQWSFNPPTFGAGTKLELKTVAAPSVFIFPPSDEQLKSGTASVVCLLNNFYPREAKVQWKVDNALQSGNSQESVTEQDSKDSTYSLSSTLTLSKADYEKHKVYACEVTHQGLSSPVTKSFNRGEC
notes: H chain entry already carries Tyr300Cys (Kabat EU index); also called Tyr300Cys-modified antibody
Regarding B2, the binding result in the assay with CD20 (on Daudi cells) is recorded as “binds”.

B3: anti-CD20 chimera antibody H chain constant region amino acid mutant Glu294Cys (antibody, human IgG1, kappa)
heavy: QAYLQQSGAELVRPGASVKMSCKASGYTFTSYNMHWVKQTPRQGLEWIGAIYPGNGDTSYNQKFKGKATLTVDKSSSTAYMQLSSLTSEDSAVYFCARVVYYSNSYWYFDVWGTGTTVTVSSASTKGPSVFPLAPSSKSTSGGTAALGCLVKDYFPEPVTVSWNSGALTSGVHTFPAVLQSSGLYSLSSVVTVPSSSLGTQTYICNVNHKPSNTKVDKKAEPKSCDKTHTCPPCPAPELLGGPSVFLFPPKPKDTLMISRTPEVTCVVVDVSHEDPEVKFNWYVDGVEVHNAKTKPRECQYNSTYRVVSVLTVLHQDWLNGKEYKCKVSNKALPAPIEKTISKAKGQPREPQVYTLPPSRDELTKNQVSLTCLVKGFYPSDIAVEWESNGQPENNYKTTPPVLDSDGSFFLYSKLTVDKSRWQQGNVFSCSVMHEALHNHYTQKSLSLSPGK
light: QIVLSQSPAILSASPGEKVTMTCRASSSVSYMHWYQQKPGSSPKPWIYAPSNLASGVPARFSGSGSGTSYSLTISRVEAEDAANYYCQQWSFNPPTFGAGTKLELKTVAAPSVFIFPPSDEQLKSGTASVVCLLNNFYPREAKVQWKVDNALQSGNSQESVTEQDSKDSTYSLSSTLTLSKADYEKHKVYACEVTHQGLSSPVTKSFNRGEC
notes: H chain entry already carries Glu294Cys (Kabat EU index); also called Glu294Cys-modified antibody
On to B3, for which, in the assay with CD20 (on Daudi cells), the binding result is on record as “binds”.

B4: anti-CD20 chimera antibody H chain constant region amino acid mutant Glu293Cys (antibody, human IgG1, kappa)
heavy: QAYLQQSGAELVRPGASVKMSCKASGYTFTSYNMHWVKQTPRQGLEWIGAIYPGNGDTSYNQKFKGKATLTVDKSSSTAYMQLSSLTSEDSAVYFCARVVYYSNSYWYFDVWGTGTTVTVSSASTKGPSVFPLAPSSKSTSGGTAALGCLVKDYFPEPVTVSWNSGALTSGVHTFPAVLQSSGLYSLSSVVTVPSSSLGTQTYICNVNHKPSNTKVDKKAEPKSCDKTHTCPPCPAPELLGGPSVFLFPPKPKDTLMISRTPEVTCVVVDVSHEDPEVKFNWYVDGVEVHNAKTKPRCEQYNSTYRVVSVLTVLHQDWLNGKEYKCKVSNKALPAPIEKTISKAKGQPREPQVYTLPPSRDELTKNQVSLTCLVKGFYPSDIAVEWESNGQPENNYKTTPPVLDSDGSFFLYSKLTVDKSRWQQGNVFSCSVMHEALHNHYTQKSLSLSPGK
light: QIVLSQSPAILSASPGEKVTMTCRASSSVSYMHWYQQKPGSSPKPWIYAPSNLASGVPARFSGSGSGTSYSLTISRVEAEDAANYYCQQWSFNPPTFGAGTKLELKTVAAPSVFIFPPSDEQLKSGTASVVCLLNNFYPREAKVQWKVDNALQSGNSQESVTEQDSKDSTYSLSSTLTLSKADYEKHKVYACEVTHQGLSSPVTKSFNRGEC
notes: H chain entry already carries Glu293Cys (Kabat EU index); also called Glu293Cys-modified antibody
B4: in the assay with CD20 (on Daudi cells), the binding result is recorded as “binds”.

B5: anti-CD20 chimera antibody H chain constant region amino acid mutant Ser298Cys (antibody, human IgG1, kappa)
heavy: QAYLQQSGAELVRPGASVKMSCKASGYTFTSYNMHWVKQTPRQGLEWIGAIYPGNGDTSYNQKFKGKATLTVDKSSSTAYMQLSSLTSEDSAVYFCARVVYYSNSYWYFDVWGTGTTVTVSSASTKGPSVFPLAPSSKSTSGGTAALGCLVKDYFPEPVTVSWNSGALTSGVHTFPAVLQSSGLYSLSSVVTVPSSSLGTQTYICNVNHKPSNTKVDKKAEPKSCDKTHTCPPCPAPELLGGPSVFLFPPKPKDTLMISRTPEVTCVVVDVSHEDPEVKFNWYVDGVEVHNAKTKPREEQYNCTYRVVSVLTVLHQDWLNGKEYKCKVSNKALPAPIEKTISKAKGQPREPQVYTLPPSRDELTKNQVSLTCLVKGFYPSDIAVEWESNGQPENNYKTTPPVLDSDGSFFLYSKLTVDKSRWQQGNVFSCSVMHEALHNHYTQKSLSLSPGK
light: QIVLSQSPAILSASPGEKVTMTCRASSSVSYMHWYQQKPGSSPKPWIYAPSNLASGVPARFSGSGSGTSYSLTISRVEAEDAANYYCQQWSFNPPTFGAGTKLELKTVAAPSVFIFPPSDEQLKSGTASVVCLLNNFYPREAKVQWKVDNALQSGNSQESVTEQDSKDSTYSLSSTLTLSKADYEKHKVYACEVTHQGLSSPVTKSFNRGEC
notes: H chain entry already carries Ser298Cys (Kabat EU index); also called Ser298Cys mutant; Ser298Cys-modified antibody; copies: 2 + 2
Regarding B5, the binding result with CD20 (on Daudi cells) was “binds”. Moreover, the “CD16 binding activity relative to wild type (concentrations that gave the same effect)” value in assay [1] is ~10 times that of the wild type.

B6: anti-CD20 chimera antibody H chain constant region amino acid mutant Tyr296Cys (antibody, human IgG1, kappa)
heavy: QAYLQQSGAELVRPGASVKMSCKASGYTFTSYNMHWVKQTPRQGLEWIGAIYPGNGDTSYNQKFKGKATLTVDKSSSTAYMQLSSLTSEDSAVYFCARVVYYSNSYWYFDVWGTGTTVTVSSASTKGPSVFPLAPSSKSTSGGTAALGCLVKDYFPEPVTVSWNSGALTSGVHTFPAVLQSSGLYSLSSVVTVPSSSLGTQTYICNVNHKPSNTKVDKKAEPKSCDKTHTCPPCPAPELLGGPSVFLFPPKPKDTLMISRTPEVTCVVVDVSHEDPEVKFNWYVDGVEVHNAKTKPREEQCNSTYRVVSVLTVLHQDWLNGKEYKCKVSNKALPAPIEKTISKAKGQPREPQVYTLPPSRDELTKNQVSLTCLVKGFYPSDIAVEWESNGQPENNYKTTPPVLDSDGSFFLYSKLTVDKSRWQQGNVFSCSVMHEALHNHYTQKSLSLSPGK
light: QIVLSQSPAILSASPGEKVTMTCRASSSVSYMHWYQQKPGSSPKPWIYAPSNLASGVPARFSGSGSGTSYSLTISRVEAEDAANYYCQQWSFNPPTFGAGTKLELKTVAAPSVFIFPPSDEQLKSGTASVVCLLNNFYPREAKVQWKVDNALQSGNSQESVTEQDSKDSTYSLSSTLTLSKADYEKHKVYACEVTHQGLSSPVTKSFNRGEC
notes: H chain entry already carries Tyr296Cys (Kabat EU index); also called Tyr296Cys mutant; Tyr296Cys-modified antibody; copies: 2 + 2
In the case of B6, the binding result with CD20 (on Daudi cells) is on record as “binds”. The “CD16 binding activity relative to wild type (concentrations that gave the same effect)” value in assay [1] was ~5 times that of the wild type.
